Data published in paper PMC3813429.

How the values were obtained:
[1] = target: HaALP, membrane bound alkaline phosphatase of Helicoverpa armigera (Helicoverpa armigera (endogenous in larval midgut)); test: SPR
[2] = target: HaALP, membrane bound alkaline phosphatase of Helicoverpa armigera (Helicoverpa armigera (endogenous in larval midgut))

Substance	Kd [1]	koff [1]	kon [1]	LC50, insect bioassay on H. armigera neonates (toxin on artificial diet surface, 5 days) [2]
Cry1Ac N510A (domain or fragment)	58.4 nM	0.00136 s⁻¹	23200 M⁻¹ s⁻¹	
Cry1Ac Q509A (domain or fragment)	29.6 nM	0.00571 s⁻¹	193000 M⁻¹ s⁻¹	
Cry1Ac R511A (domain or fragment)	32 nM	0.00179 s⁻¹	55800 M⁻¹ s⁻¹	
Cry1Ac W545A (domain or fragment)	7150 nM	0.00688 s⁻¹	963 M⁻¹ s⁻¹	34.1 µg/mL
Cry1Ac Y513A (domain or fragment)	223 nM	0.00147 s⁻¹	6610 M⁻¹ s⁻¹	
Cry1Ac tetra mutant (Q509A-N510A-R511A.Y513A) (domain or fragment)	2420 nM	0.000184 s⁻¹	75 M⁻¹ s⁻¹	
Cry1Ac triple mutant (Q509A-N510A-R511A) (domain or fragment)	262 nM	0.00269 s⁻¹	10200 M⁻¹ s⁻¹	
